Experimental data reported in patent publication US11365264B2, “Therapeutic methods and compositions” (INSTITUT PASTEUR, priority 2013, dated 2022).

Experiments:
[1] = test system: purified HD CD4 T cells; type: cell-based, human
[2] = test system: purified HD CD4 T cells; test: Inhibition of IL-7-induced STAT5 phosphorylation and nuclear translocation; type: cell-based, human; conditions: for effect on IL-7 induced nuclear translocation of phosphoSTAT5 (NT pSTAT5): CD4 T cells, IL-7 stimulation
Procedure: CD4 T-cells were purified by negative selection as already described (10) then activated with 2 nM recombinant glycosylated human IL-7 (Cytheris) or 40 μg PHA (Sigma). The confocal and STED microscopy used to study cell surface microdomains (MMD) and phospho-STAT5 cellular compartment distribution has already been described (10, 12). FCS analysis of protein diffusion at the surface of living cells has also been described (10, 12
Cells were then plated on polylysine-coated glass slides for 10 min then activated by 15 min IL-7 (2 nM) or not for control (NS), then fixed by PFA (PFA, 1.5%, 15 min at 37° C. followed by 15 min at room temperature) and permeabilization by methanol (90% at −20° C.). Cells were equilibrated one hour in PBS/SVF 5% then phospho-STAT5 was then stained by rabbit anti-STAT5 labelled with goat anti-rabbit-Atto642 and analyzed by FACS or STED microscopy.
VP plasma containing PLA2sGIB was first incubated with purified HD CD4 T cells (20 min) before stimulation by IL-7 (2 nM, 15 min.). Cells were then plated on polylysine coated glass slides before fixation by PFA (1.5%) and permeabilization by methanol (90% at −20° C.). pSTAT5 was then stained by rabbit anti-STAT5 labelled with goat anti-rabbit-Atto642 and analyzed by FACS or pulsed STED microscopy.

[3] = Enz Check PLA2 enzymatic assay; conditions: for enzymatic activity (in words): recombinant PLA2 proteins produced in E. coli; for enzymatic activity of mutant vs recombinant porcine PLA2 GIB: each protein at 200 microM, FIG. 12
Procedure: The assay was performed with the Enz Check PLA2 assay kit from Life Technologies (ref.: E102147). […] The PLA2 activity is followed by the intensity increase of a single wavelength at 515 nm. PLA2 is detected by changes in the emission intensity ratio at 515/575 nm with excitation at 460 nm. Specific activities are expressed in amount of fluorescent substrate (U) obtained per second and per μg of enzyme in solution.
Each protein was used at 200 microM.

[4] = biological target: T1, human GIBsPLA2 (Homo sapiens, UniProt P04054); test: Inhibitor test: inhibition of IL-7-induced pSTAT5 nuclear translocation by viremic plasma or PLA2 GIB; type: cell-based; conditions: 100 nM inhibitor, human PLA2G1B, FIG. 16
T1 construct: from tissue
T1 sequence (P04054 23-148): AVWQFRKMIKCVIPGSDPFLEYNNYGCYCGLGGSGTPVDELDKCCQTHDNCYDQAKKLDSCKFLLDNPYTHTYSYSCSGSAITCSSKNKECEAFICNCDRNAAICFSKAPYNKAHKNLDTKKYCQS

## commercial purified porcine GIBsPLA2: commercial purified porcine GIBsPLA2
[1]
  induction of abnormal membrane microdomains (aMMD): induces abnormal MDM
[2]
  effect on IL-7 induced nuclear translocation of phosphoSTAT5 (NT pSTAT5): block IL-7 pSTAT5 nuclear translocation

## hPLA2 IB: recombinant human PLA2 IB (in E. coli)
[3]
  Specific activity: 10694.57 U/ug/s
  enzymatic activity (in words): potent enzymatic activity

## hPLA2 IID: recombinant human PLA2 IID (E. coli)
[3]
  Specific activity: 445.21 U/ug/s
  enzymatic activity (in words): not active

## mutant H48Q: porcine PLA2 GIB mutant, histidine at position 48 replaced by glutamine, produced in E. coli
[1]
  induction of abnormal membrane microdomains (aMMD): lost the ability
[2]
  effect on IL-7 induced nuclear translocation of phosphoSTAT5 (NT pSTAT5): lost the ability
[3]
  enzymatic activity of mutant vs recombinant porcine PLA2 GIB: lost all of its enzymatic activity
[3]; listed as pPLA2GIB H48Q
  enzymatic activity of mutant vs recombinant porcine PLA2 GIB: Absence of activity

## pPLA2 IB: recombinant porcine PLA2 IB (in E. coli)
[3]
  Specific activity: 10353.57 U/ug/s

## ppPLA2 IB: Purified porcine pancreas PLA2 IB
[3]
  Specific activity: 7694.31 U/ug/s

B1: IL-7: recombinant glycosylated human IL-7 (Cytheris) (protein, UniProt P13232 26-177, looked up)
Interleukin-7: DCDIEGKDGKQYESVLMVSIDQLLDSMKEIGSNCLNNEFNFFKRHICDANKEGMFLFRAARKLRQFLKMNSTGDFDLHLLKVSEGTTILLNCTGQVKGRKPAALGEAQPTKSLEENKSLKEQKKLNDLCFLKRLLQEIKTCWNKILMGTKEH
modifications: glycosylated
[1]
  MMD size: 90 nm
  number of MMD per CD4 T cell: 300 MMD/cell
[2]; HD CD4 T cells, five minutes following IL-7 stimulation
  phospho-STAT5 found in the nucleus: 50%

B2: hPLA2 IIA: recombinant human PLA2 IIA (in E. coli) (protein, UniProt P14555 21-144, looked up)
Phospholipase A2, membrane …: NLVNFHRMIKLTTGKEAALSYGFYGCHCGVGGRGSPKDATDRCCVTHDCCYKRLEKRGCGTKFLSYKFSNSGSRITCAKQDSCRSQLCECDKAAATCFARNKTTYNKKYQYYSNKHCRGSTPRC
[3]
  Specific activity: 214.93 U/ug/s
  enzymatic activity (in words): not active

B3: hPLA2 X: recombinant human PLA2 X (in E. coli) (protein, UniProt O15496 43-165, looked up)
Group 10 secretory …: GILELAGTVGCVGPRTPIAYMKYGCFCGLGGHGQPRDAIDWCCHGHDCCYTRAEEAGCSPKTERYSWQCVNQSVLCGPAENKCQELLCKCDQEIANCLAQTEYNLKYLFYPQFLCEPDSPKCD
[3]
  Specific activity: 3318.97 U/ug/s
  enzymatic activity (in words): very limited activity

B4: recombinant PLA2 soluble receptor: soluble murine receptor specific for PLA2 GIB, SEQ ID NO: 22 (protein)
chain: MVQWLAMLQLLWLQQLLLLGIHQGIAQDLTHIQEPSLEWRDKGIFIIQSESLKTCIQAGKSVLTLENCKQPNEHMLWKWVSDDHLFNVGGSGCLGLNISALEQPLKLYECDSTLISLRWHCDRKMIEGPLQYKVQVKSDNTVVARKQIHRWIAYTSSGGDICEHPSRDLYTLKGNAHGMPCVFPFQFKGHWHHDCIREGQKEHLLWCATTSRYEEDEKWGFCPDPTSMKVFCDATWQRNGSSRICYQFNLLSSLSWNQAHSSCLMQGGALLSIADEDEEDFIRKHLSKVVKEVWIGLNQLDEKAGWQWSDGTPLSYLNWSQEITPGPFVEHHCGTLEVVSAAWRSRDCESTLPYICKRDLNHTAQGILEKDSWKYHATHCDPDWTPFNRKCYKLKKDRKSWLGALHSCQSNDSVLMDVASLAEVEFLVSLLRDENASETWIGLSSNKIPVSFEWSSGSSVIFTNWYPLEPRILPNRRQLCVSAEESDGRWKVKDCKERLFYICKKAGQVPADEQSGCPAGWERHGRFCYKIDTVLRSFEEASSGYYCSPALLTITSRFEQAFITSLISSVAEKDSYFWIALQDQNNTGEYTWKTVGQREPVQYTYWNTRQPSNRGGCVVVRGGSSLGRWEVKDCSDFKAMSLCKTPVKIWEKTELEERWPFHPCYMDWESATGLASCFKVFHSEKVLMKRSWREAEAFCEEFGAHLASFAHIEEENFVNELLHSKFNWTQERQFWIGFNRRNPLNAGSWAWSDGSPVVSSFLDNAYFEEDAKNCAVYKANKTLLPSNCASKHEWICRIPRDVRPKFPDWYQYDAPWLFYQNAEYLFHTHPAEWATFEFVCGWLRSDFLTIYSAQEQEFIHSKIKGLTKYGVKWWIGLEEGGARDQIQWSNGSPVIFQNWDKGREERVDSQRKRCVFISSITGLWGTENCSVPLPSICKRVKIWVIEKEKPPTQPGTCPKGWLYFNYKCFLVTIPKDPRELKTWTGAQEFCVAKGGTLVSIKSELEQAFITMNLFGQTTNVWIGLQSTNHEKWVNGKPLVYSNWSPSDIINIPSYNTTEFQKHIPLCALMSSNPNFHFTGKWYFDDCGKEGYGFVCEKMQDTLEHHVNVSDTSAIPSTLEYGNRTYKIIRGNMTWYAAGKSCRMHRAELASIPDAFHQAFLTVLLSRLGHTHWIGLSTTDNGQTFDWSDGTKSPFTYWKDEESAFLGDCAFADTNGRWHSTACESFLQGAICHVVTETKAFEHPGLCSETSVPWIKFKGNCYSFSTVLDSRSFEDAHEFCKSEGSNLLAIRDAAENSFLLEELLAFGSSVQMVWLNAQFDNNNKTLRWFDGTPTEQSNWGLRKPDMDHLKPHPCVVLRIPEGIWHFTPCEDKKGFICKMEAGIPAVTAQPEKGLSHSIVPVTVTLTLIIALGIFMLCFWIYKQKSDIFQRLTGSRGSYYPTLNFSTAHLEENILISDLEKNTNDEEVRDAPATESKRGHKGRPICISP
modifications: soluble receptor
[4]
  effect on activity of PLA2sGIB on NT of pSTAT5: significantly block the negative effect of PLA2sGIB on the NT of pSTAT5
[4]; listed as sMR
  effect on activity of PLA2sGIB on NT of pSTAT5: inhibits the activity of human PLA2G1B
